Our source for the avidity values is patent US6783936.

In the experiment the target is one CLL cell line. The experiment in a line: avidity constant derived from LD50 of complement dependent cytotoxicity on CLL cells.

The substance Lym-1 antibody displayed an avidity of 1.1e+08.
